Biological target: stabilized pre-fusion RSV F glycoprotein (DS-Cav1) (respiratory syncytial virus (strain not stated)) (UniProt P03420)
Test: crystal structure; RB1 Fab with DS-Cav1, complex purified by SEC; crystals in 100 mM Tris pH 8.5, 12% PEG 8000, 200 mM ammonium sulfate; 3.4 A

Substance: stabilized pre-fusion RSV F glycoprotein (DS-Cav1) (from UniProt P03420 137-513) (natural protein)
- stoichiometry N: 3
